From paper PMC10397247

How the values were obtained:
Assay in all cases: two-hybrid library CCNG1;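 also: natural log of median RNA to DNA barcode read ratio; higher means stronger binding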
4H2438-bH = target: T1, 4H2438-bH
T1 chain: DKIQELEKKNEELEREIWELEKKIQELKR

4H40-bH = target: T2, 4H40-bH
T2 chain: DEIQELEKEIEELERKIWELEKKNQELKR

4H2692-bH = target: T3, 4H2692-bH
T3 chain: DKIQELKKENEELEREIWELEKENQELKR

4H2717-bH = target: T4, 4H2717-bH
T4 chain: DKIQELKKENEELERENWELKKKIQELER

4H2588-bH = target: T5, 4H2588-bH
T5 chain: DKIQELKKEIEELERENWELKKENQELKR

4H492-bH = target: T6, 4H492-bH
T6 chain: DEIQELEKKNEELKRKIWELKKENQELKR

4H2223-bH = target: T7, 4H2223-bH
T7 chain: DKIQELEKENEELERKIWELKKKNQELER

4H741-bH = target: T8, 4H741-bH
T8 chain: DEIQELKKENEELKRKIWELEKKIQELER

4H2503-bH = target: T9, 4H2503-bH
T9 chain: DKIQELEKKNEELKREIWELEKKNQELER

4H2839-bH = target: T10, 4H2839-bH
T10 chain: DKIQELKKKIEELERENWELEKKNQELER

4H319-bH = target: T11, 4H319-bH
T11 chain: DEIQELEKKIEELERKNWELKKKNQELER

4H477-bH = target: T12, 4H477-bH
T12 chain: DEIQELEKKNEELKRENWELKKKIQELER

4H348-bH = target: T13, 4H348-bH
T13 chain: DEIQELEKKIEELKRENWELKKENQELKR

4H2915-bH = target: T14, 4H2915-bH
T14 chain: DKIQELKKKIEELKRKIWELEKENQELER

4H3277-bH = target: T15, 4H3277-bH
T15 chain: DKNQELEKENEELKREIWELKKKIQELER

4H2473-bH = target: T16, 4H2473-bH
T16 chain: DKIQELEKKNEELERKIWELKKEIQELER

4H3057-bH = target: T17, 4H3057-bH
T17 chain: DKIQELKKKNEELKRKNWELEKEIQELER

4H2473-bN = target: T18, 4H2473-bN
T18 chain: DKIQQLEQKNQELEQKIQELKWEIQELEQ

4H40-bN = target: T19, 4H40-bN
T19 chain: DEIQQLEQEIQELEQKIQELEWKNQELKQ

4H2223-bN = target: T20, 4H2223-bN
T20 chain: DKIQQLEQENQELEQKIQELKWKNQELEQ

4H2438-bN = target: T21, 4H2438-bN
T21 chain: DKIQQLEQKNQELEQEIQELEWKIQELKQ

4H2503-bN = target: T22, 4H2503-bN
T22 chain: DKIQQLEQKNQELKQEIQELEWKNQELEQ

4H492-bN = target: T23, 4H492-bN
T23 chain: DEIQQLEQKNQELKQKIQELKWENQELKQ

4H2588-bN = target: T24, 4H2588-bN
T24 chain: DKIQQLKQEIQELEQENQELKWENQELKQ

4H3057-bN = target: T25, 4H3057-bN
T25 chain: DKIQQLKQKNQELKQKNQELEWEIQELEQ

4H3381-bH = target: T26, 4H3381-bH
T26 chain: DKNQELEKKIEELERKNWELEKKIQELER

4H3277-bN = target: T27, 4H3277-bN
T27 chain: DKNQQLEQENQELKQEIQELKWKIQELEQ

4H741-bN = target: T28, 4H741-bN
T28 chain: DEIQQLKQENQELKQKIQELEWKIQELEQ

4H2692-bN = target: T29, 4H2692-bN
T29 chain: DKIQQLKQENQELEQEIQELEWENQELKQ

4H2915-bN = target: T30, 4H2915-bN
T30 chain: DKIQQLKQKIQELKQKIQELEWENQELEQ

4H2717-bN = target: T31, 4H2717-bN
T31 chain: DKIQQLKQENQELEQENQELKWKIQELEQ

4H319-bN = target: T32, 4H319-bN
T32 chain: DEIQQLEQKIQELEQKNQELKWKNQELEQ

4H2839-bN = target: T33, 4H2839-bN
T33 chain: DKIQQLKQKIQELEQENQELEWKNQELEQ

4H477-bN = target: T34, 4H477-bN
T34 chain: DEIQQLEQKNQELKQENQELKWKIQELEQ

## DKIQELEKENEELERKIWELKKKNQELER [4H2223-bH]
4H2438-bH
  interaction score: -0.678
4H40-bH
  interaction score: -1.6
4H2692-bH
  interaction score: 0.736
4H2717-bH
  interaction score: 0.113
4H2588-bH
  interaction score: 0.461
4H492-bH
  interaction score: -0.847
4H2223-bH
  interaction score: -0.882
4H741-bH
  interaction score: 0.0741
4H2503-bH
  interaction score: 1.19
4H2839-bH
  interaction score: 0.582
4H319-bH
  interaction score: -0.374
4H477-bH
  interaction score: -0.907
4H348-bH
  interaction score: -1.35
4H2915-bH
  interaction score: 0.816
4H3277-bH
  interaction score: 0.0226
4H2473-bH
  interaction score: 0.446
4H3057-bH
  interaction score: 0.455

## DKIQQLEQENQELEQKIQELKWKNQELEQ [4H2223-bN]
4H2473-bN
  interaction score: -0.941
4H40-bN
  interaction score: -0.775
4H2223-bN
  interaction score: 0.483
4H2438-bN
  interaction score: -0.0421
4H2503-bN
  interaction score: 1.04
4H492-bN
  interaction score: 0.539
4H2588-bN
  interaction score: 0.654
4H3057-bN
  interaction score: -0.362
4H3381-bH
  interaction score: 0.0621
4H3277-bN
  interaction score: -0.393
4H741-bN
  interaction score: -0.691
4H2692-bN
  interaction score: -0.818
4H2915-bN
  interaction score: -1.33
4H2717-bN
  interaction score: -2.14
4H319-bN
  interaction score: -0.943
4H2839-bN
  interaction score: -0.721
4H477-bN
  interaction score: -1.55
